Target: polymerized microtubules (UniProt P68369)

microtubule binding against WT α-TAT1: 65%
Substance: GFP-α-TAT1^DC1 (α-TAT1 with Cluster 1 deleted) (from UniProt Q8K341 1-314) (domain or fragment)
